According to patent publication US20130142799A1 (Amgen, published 2013):

T1: murine Ang-2, His-tagged (mouse, UniProt O35608 19-496)
T1 construct: also called mAng-2; mAng-2-His
T1 sequence (looked up): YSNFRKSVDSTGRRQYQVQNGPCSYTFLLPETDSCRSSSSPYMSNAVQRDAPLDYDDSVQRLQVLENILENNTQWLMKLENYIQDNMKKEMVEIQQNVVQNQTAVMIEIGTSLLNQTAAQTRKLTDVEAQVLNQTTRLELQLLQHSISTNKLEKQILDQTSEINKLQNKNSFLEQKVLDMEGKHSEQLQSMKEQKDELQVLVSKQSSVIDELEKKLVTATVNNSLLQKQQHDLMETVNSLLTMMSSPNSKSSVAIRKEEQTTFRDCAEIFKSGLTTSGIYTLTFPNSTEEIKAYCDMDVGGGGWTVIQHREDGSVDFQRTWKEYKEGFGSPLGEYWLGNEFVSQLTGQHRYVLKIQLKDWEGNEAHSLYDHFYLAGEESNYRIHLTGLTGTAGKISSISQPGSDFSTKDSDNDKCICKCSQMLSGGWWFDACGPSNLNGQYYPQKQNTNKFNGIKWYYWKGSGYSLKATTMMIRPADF

T2: human angiopoietin-1 (human, UniProt Q15389 20-498)
T2 construct: also called hAng-1; Human Ang1
T2 sequence (looked up): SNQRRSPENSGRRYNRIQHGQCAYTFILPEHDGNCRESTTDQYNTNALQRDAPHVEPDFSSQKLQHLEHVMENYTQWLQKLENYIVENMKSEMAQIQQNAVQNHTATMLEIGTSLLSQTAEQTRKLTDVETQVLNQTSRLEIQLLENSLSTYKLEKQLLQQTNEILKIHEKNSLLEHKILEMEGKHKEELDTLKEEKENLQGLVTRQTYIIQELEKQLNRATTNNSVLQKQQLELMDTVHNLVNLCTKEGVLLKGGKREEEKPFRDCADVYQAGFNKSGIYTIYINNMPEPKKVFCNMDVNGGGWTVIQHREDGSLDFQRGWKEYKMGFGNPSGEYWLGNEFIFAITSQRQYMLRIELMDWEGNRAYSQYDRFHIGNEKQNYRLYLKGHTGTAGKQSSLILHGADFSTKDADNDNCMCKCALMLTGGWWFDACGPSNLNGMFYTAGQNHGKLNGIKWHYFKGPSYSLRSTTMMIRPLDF

T3: human angiopoietin-2 (human, UniProt O15123 19-496, limits assumed)
T3 construct: also called hAng-2; huAng-2
T3 sequence (looked up): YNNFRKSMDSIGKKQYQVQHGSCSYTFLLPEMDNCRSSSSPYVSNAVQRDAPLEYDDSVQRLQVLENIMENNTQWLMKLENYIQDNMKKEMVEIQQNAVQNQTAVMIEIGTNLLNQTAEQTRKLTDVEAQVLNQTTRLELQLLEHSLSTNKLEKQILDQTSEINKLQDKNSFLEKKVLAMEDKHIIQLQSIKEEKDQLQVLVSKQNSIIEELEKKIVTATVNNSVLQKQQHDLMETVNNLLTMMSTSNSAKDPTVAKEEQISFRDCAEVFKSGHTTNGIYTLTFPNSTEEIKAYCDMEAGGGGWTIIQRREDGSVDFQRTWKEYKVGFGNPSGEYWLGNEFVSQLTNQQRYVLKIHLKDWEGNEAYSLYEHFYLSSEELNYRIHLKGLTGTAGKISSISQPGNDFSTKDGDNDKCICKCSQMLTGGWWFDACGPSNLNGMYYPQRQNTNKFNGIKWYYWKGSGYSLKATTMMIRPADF

T4: Mouse Ang2 (recombinant, 293T cell conditioned media) (mouse, UniProt O35608 19-496)
T4 construct: construct not described
T4 sequence (looked up): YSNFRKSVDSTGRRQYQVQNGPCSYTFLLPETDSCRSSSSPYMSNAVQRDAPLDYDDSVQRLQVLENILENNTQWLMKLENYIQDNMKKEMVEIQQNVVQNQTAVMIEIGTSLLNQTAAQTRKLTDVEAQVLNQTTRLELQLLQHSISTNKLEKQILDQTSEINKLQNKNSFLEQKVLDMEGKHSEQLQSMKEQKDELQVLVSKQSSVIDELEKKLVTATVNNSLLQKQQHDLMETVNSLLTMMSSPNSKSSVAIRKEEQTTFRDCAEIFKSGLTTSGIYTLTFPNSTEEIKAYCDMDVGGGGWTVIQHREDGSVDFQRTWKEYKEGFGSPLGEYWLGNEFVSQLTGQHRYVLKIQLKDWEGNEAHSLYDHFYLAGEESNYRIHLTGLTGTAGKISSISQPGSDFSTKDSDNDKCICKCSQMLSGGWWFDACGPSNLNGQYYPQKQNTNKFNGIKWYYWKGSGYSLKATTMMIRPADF


What was measured:
[1] = biological target: T1, murine Ang-2, His-tagged; test: Neutralization ELISA: antibody titrated against 1 nM Tie2-Fc on plate-bound mAng-2
[2] = biological target: T2, human angiopoietin-1; test: Neutralization ELISA: antibody titrated against 1 nM Tie2-Fc on plate-bound hAng-1
[3] = biological target: T3, human angiopoietin-2; test: Neutralization ELISA: antibody titrated against 1 nM Tie2-Fc on plate-bound hAng-2
Description: Microtiter plates to which human Ang-2 polypeptide was bound were prepared as described for the Affinity ELISA. […] Next, about 100 microliters per well of goat anti-mouse-IgG-HRP (Pierce Chemical CO., catalog #31432) was added at a dilution of 1:10,000 in PBS containing about 1 percent BSA. Plates were incubated at room temperature for about 1 hour, after which they were washed five times with PBS containing about 0.1 percent Tween-20. About 100 microliters per well of TMB substrate (described above) was then added and color was allowed to develop. Absorbance was then read in a spectrophotomer at 370 nm.
Seventeen of the antibodies and a negative control IgG1 (referred to as RDB1) were tested using affinity and neutralization ELISA (as described in Example 3 above) as well as the BIAcore neutralization assay to determine their affinity, neutralization, and specificity capabilities.

[4] = biological target: T3, human angiopoietin-2; test: Affinity ELISA on plate-bound hAng-2
[5] = biological target: T1, murine Ang-2, His-tagged; test: BIAcore: antibody captured on Protein G, mAng-2 injected
Description: (§1) Binding assays were carried out by first attaching about 100 Ru of each candidate anti-Ang-2 antibody to the immobilized Protein G, after which various concentrations (0-100 nM) of huAng-2 or mAng-2 were then injected over the bound antibody surface at a flow rate of about 50 ul/min for about 3 minutes. Antibody binding kinetics including kₐ (association rate constant), kd (dissociation rate constant) and KD (dissociation equilibrium constant) were determined using the BIA evaluation 3.1 computer program (BIAcore, Inc.).

[6] = biological target: T2, human angiopoietin-1; test: Affinity ELISA on plate-bound hAng-1
[7] = biological target: T1, murine Ang-2, His-tagged; test: Affinity ELISA on plate-bound mAng-2
[8] = biological target: T3, human angiopoietin-2; test: BIAcore: antibody captured on Protein G, huAng-2 injected
Description: as §1

[9] = biological target: T4, Mouse Ang2 (recombinant, 293T cell …); test: ELISA: antibody titrated against 1 nM hTie2-Fc on plate-bound mouse Ang2 (293T conditioned media)
Description: (§2) For the ELISA assay, ninety-six-well microtiter plates were coated with recombinant angiopoietins in 293T cell conditioned media (DMEM/50 ug/ml BSA) at 37° C. for 1 hour. […] Plates were washed with PBS/0.1% Tween-20 and then blocked for 2 hours at room temperature with PBS/5% BSA. […] Goat anti-mouse-IgG-HRP (Pierce, catalog #31432) was added at a dilution of 1:10,000 in PBS/1% BSA (1 hour incubated at room temperature), after which plates were washed several times with PBS/0.1% Tween-20.
(§3) All results were expressed as IC50 curves calculated from samples that were tested in duplicate using the formula below.

[10] = biological target: T3, human angiopoietin-2; test: ELISA: antibody titrated against 1 nM hTie2-Fc on plate-bound human Ang2 (293T conditioned media)
Description: as §2, §3

[11] = biological target: T3, human angiopoietin-2; test: HTRF: antibody titrated against biotinylated human Ang2 and APC-conjugated human Tie2-Fc
Description: For HTRF assays, a ninety-six-well microtiter “mix plate” was prepared by adding 50 ul of HTRF buffer (50 mM Tris-HCl, pH 7.5, 100 mM NaCl, 0.05% Tween 20, 0.1% BSA) containing 0.8 nM Europium-conjugated streptavidin (PERKIN ELMER LIFE SCIENCES INC., catalog #AD0062) and 4.0 nM biotinylated human angiopoietin 1 (R & D Systems) or angiopoietin 2 (Amgen Inc.) to each well. In a separate microtiter plate, angiopoietin-neutralizing agents were titrated from 400 nM to […] in HTRF buffer, and 50 ul of each serially-diluted angiopoietin-neutralizing agent were then transferred and mixed with the “mix plate” containing the streptavidin-Europium/angiopoietin. The plate was then incubated on a shaker at room temperature for one hour. […] The final “assay plate” was incubated at room temperature with shaking for two hours. […] Assay plates were analyzed using a Rubystar plate reader (BMG Labtechnologies, Offenberg, Germany). […] IC50 values were then calculated by analyzing percentage inhibition using the GRAFIT 5.0 program (Erithacus Software Ltd.).
as §3

Row | Binder | IC50 [1] | IC50 [2] | IC50 [3] | EC50 [4] | Kd [5] | koff [5] | kon [5] | EC50 [6] | EC50 [7] | Kd [8] | koff [8] | kon [8] | IC50 [9] | IC50 [10] | IC50 [11]
1 | Ab 526 (antibody, human IgG1, kappa, V domains shown, Fully human IgG1 kappa) VH: EVQLVESGGGVVQPGRSLRLSCAASGFTFSSYGMHWVRQAPGKGLEWVSAISGSGGSTYYADSVKGRFTISRDNAKNSLYLQMNSLRAEDTAVYYCARDLLDYDILTGPYAYWGQGTLVTVSS VL: not shown | 270 pM | 243000 pM | 1830 pM | – | – | – | – | – | – | – | – | – | – | – | –
2 | Ab 536 (THW/LQT mixture) (antibody, V domains shown, each antibody in the mixture has two heavy and two light chains; also called clone 536; copies: 2 + 2) VH: EVQLVQSGGGVVQPGRSLRLSCAASGFTFSSYGMHWVRQAPGKGLEWVSYISSSGSTIYYADSVKGRFTISRDNAKNSLYLQMNSLRAEDTAVYYCARDLLDYDILTGYGYWGQGTLVTVSS VL: not shown | 50 pM | 115000 pM | 80 pM | 5 pM | 150 pM | 9.5e-05 s⁻¹ | 620000 M⁻¹ s⁻¹ | 30000 pM | 10 pM | 120 pM | 3.8e-05 s⁻¹ | 320000 M⁻¹ s⁻¹ | – | – | –
3 | Ab536 LQT (antibody, human IgG1, kappa, V domains shown, Fully human IgG1 kappa; variant separated from the clone 536 mixture; also called 536 kappa LQT variant) VH: EVQLVQSGGGVVQPGRSLRLSCAASGFTFSSYGMHWVRQAPGKGLEWVSYISSSGSTIYYADSVKGRFTISRDNAKNSLYLQMNSLRAEDTAVYYCARDLLDYDILTGYGYWGQGTLVTVSS VL: not shown | – | – | – | – | – | – | – | – | – | – | – | – | 100 pM | 350 pM | 72 pM
4 | Ab536 THW (antibody, human IgG1, kappa, V domains shown, Fully human IgG1 kappa; variant separated from the clone 536 mixture; also called 536 kappa THW variant) VH: EVQLVQSGGGVVQPGRSLRLSCAASGFTFSSYGMHWVRQAPGKGLEWVSYISSSGSTIYYADSVKGRFTISRDNAKNSLYLQMNSLRAEDTAVYYCARDLLDYDILTGYGYWGQGTLVTVSS VL: not shown | – | – | – | – | – | – | – | – | – | – | – | – | 88 pM | 310 pM | 71 pM

Now from value to binder:

Row | IC50 [1] | IC50 [2] | IC50 [3] | EC50 [4] | Kd [5] | koff [5] | kon [5] | EC50 [6] | EC50 [7] | Kd [8] | koff [8] | kon [8] | IC50 [9] | IC50 [10] | IC50 [11] | Binder
5 | 1820 pM | 23300 pM | 970 pM | – | – | – | – | – | – | – | – | – | – | – | – | Ab 544 (antibody, human IgG1, lambda, V domains shown, also called clone 544) VH: QVQLVQSGAEVKKPGASVKVSCKASGGTFSSYAISWVRQAPGQGLEWMGGIIPIFGTANYAQKFQGRVTITADESTSTAYMELSSLRSEDTAVYYCARFESGYWGDAFDIWGQGTMVTVSS VL: SYELTQPPSVSVSPGQTARITCSGDALPKQYAYWYQQKPGQAPVLVIYKDSERPSGIPERFSGSSSGTTVTLTISGVQAEDEADYYCQSADSSHVVFGGGTKLTVLG
6 | 600 pM | 69500 pM | 1390 pM | – | – | – | – | – | – | – | – | – | – | – | – | Ab G1D4 (antibody, human IgG1, lambda, V domains shown, Fully human IgG1 lambda) VH: QVQLVQSGAEVKKPGSSVKVSCKASGGTFSSHAISWVRQAPGQGLEWMGRIIPILGIANYAQKFQGRVTITADESTSTAYMELSSLRSEDTAVYYCATSRLEWLLYLDYWGQGTLVTVSS VL: NFMLTQPHSVSESPGKTVIIPCTRSSGSIASNYVQWYQKRPGSAPSIVIYEDKQRPSGVPDRFSGSIDSSSNSASLTISGLKTEDEADYYCQSYNSRGVMFGGGTKLTVLG
7 | 1300 pM | 8310 pM | 1040 pM | 20 pM | 900 pM | 0.00053 s⁻¹ | 590000 M⁻¹ s⁻¹ | 2000 pM | 50 pM | 1200 pM | 0.00039 s⁻¹ | 330000 M⁻¹ s⁻¹ | – | – | – | Ab 545 (antibody, human IgG1, lambda, V domains shown, Fully human IgG1 lambda; also called clone 545) VH: QVQLQESGGGVVQPGRSLRLSCAASGFTFSSYGMHWVRQAPGKGLEWVAVISYDGSNKYYADSVKGRFTISRDNSKNTLYLQMNSLRAEDTAVYYCAKGPVDFDYGDYAIDYWGQGTLVTVSS VL: QSVLTQPSSVSGAPGQRVTISCTGQSSNIGAGYDVHWYQQFPGRAPKLLIYGNSNRPSGVPDRFSGSKSGTSASLAITGLQPEDEADYYCQSYDSRLSGSVFGGGTKLTVLG
